Assay results taken from patent US20210388087A1 (Chugai, published 2021).

Target: T1, CD3 epsilon homodimer protein (UniProt P07766 23-126)
T1 construct: immobilized on Sensor chip CM4 by amine coupling; also called CD3 (CD3 epsilon)
Assay: SPR (Biacore T200), CD3 epsilon homodimer on CM4 chip, one-arm antibody as analyte, 25 C;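 note: homodimer attached to the sensor surface via amine coupling, HBS-EP+ used as running buffer during binding runs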

T1 sequence (P07766 23-126): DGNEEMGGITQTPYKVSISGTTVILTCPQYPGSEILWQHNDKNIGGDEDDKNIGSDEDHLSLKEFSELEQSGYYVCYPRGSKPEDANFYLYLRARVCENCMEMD

Row | Binder | ratio of amounts bound (altered form / CE115HA000)
1 | CE115HA000 K52bL one-arm antibody (antibody, human IgG1, kappa, L234A L235A, N297A, name in Kabat numbering) heavy: QVQLVESGGGVVQPGRSLRLSCAASGFTFSNAWMHWVRQAPGKGLEWVAQIKALSNNYATYYAESVKGRFTISRDDSKNSLYLQMNSLKTEDTAVYYCRYVHYGAYYGVDAWGQGTTVTVSSASTKGPSVFPLAPSSKSTSGGTAALGCLVKDYFPEPVTVSWNSGALTSGVHTFPAVLQSSGLYSLSSVVTVPSSSLGTQTYICNVNHKPSNTKVDKKVEPKSCDKTHTCPPCPAPEAAGGPSVFLFPPKPKDTLMISRTPEVTCVVVDVSHEDPEVKFNWYVDGVEVHNAKTKPREEQYASTYRVVSVLTVLHQDWLNGKEYKCKVSNKALPAPIEKTISKAKGQPREPQVYTLPPSRCELTKNQVSLSCAVKGFYPSDIAVEWESNGQPENNYKTTPPVLDSDGSFFLVSKLTVDKSRWQQGNVFSCSVMHEALHNHYTQKSLSLSPDYKDDDDK EPKSSDKTHTCPPCPAPELLGGPSVFLFPPKPKDTLMISRTPEVTCVVVDVSHEDPEVKFNWYVDGVEVHNAKTKPREEQYNSTYRVVSVLTVLHQDWLNGKEYKCKVSNKALPAPIEKTISKAKGQPREPQVCTLPPSRDELTKNQVSLWCLVKGFYPSDIAVEWESNGQPENNYKTTPPVLDSDGSFFLYSKLTVDKSRWQQGNVFSCSVMHEALHNRYTQKSLSLSP light: DIVMTQSPLSLPVTPGEPASISCRSSQSLVHSNRNTYLHWYQQKPGQAPRLLIYKVSNRFSGVPDRFSGSGSGTDFTLKISRVEAEDVGVYYCGQGTQVPYTFGQGTKLEIKRTVAAPSVFIFPPSDEQLKSGTASVVCLLNNFYPREAKVQWKVDNALQSGNSQESVTEQDSKDSTYSLSSTLTLSKADYEKHKVYACEVTHQGLSSPVTKSFNRGEC | 0.61
2 | CE115HA000 K52bN one-arm antibody (antibody, human IgG1, kappa, L234A L235A, N297A, name in Kabat numbering) heavy: QVQLVESGGGVVQPGRSLRLSCAASGFTFSNAWMHWVRQAPGKGLEWVAQIKANSNNYATYYAESVKGRFTISRDDSKNSLYLQMNSLKTEDTAVYYCRYVHYGAYYGVDAWGQGTTVTVSSASTKGPSVFPLAPSSKSTSGGTAALGCLVKDYFPEPVTVSWNSGALTSGVHTFPAVLQSSGLYSLSSVVTVPSSSLGTQTYICNVNHKPSNTKVDKKVEPKSCDKTHTCPPCPAPEAAGGPSVFLFPPKPKDTLMISRTPEVTCVVVDVSHEDPEVKFNWYVDGVEVHNAKTKPREEQYASTYRVVSVLTVLHQDWLNGKEYKCKVSNKALPAPIEKTISKAKGQPREPQVYTLPPSRCELTKNQVSLSCAVKGFYPSDIAVEWESNGQPENNYKTTPPVLDSDGSFFLVSKLTVDKSRWQQGNVFSCSVMHEALHNHYTQKSLSLSPDYKDDDDK EPKSSDKTHTCPPCPAPELLGGPSVFLFPPKPKDTLMISRTPEVTCVVVDVSHEDPEVKFNWYVDGVEVHNAKTKPREEQYNSTYRVVSVLTVLHQDWLNGKEYKCKVSNKALPAPIEKTISKAKGQPREPQVCTLPPSRDELTKNQVSLWCLVKGFYPSDIAVEWESNGQPENNYKTTPPVLDSDGSFFLYSKLTVDKSRWQQGNVFSCSVMHEALHNRYTQKSLSLSP light: DIVMTQSPLSLPVTPGEPASISCRSSQSLVHSNRNTYLHWYQQKPGQAPRLLIYKVSNRFSGVPDRFSGSGSGTDFTLKISRVEAEDVGVYYCGQGTQVPYTFGQGTKLEIKRTVAAPSVFIFPPSDEQLKSGTASVVCLLNNFYPREAKVQWKVDNALQSGNSQESVTEQDSKDSTYSLSSTLTLSKADYEKHKVYACEVTHQGLSSPVTKSFNRGEC | 0.27

Now from value to binder:

Row | ratio of amounts bound (altered form / CE115HA000) | Binder
3 | 1.11 | CE115HA000 K52bR one-arm antibody (antibody, human IgG1, kappa, L234A L235A, N297A, name in Kabat numbering) heavy: QVQLVESGGGVVQPGRSLRLSCAASGFTFSNAWMHWVRQAPGKGLEWVAQIKARSNNYATYYAESVKGRFTISRDDSKNSLYLQMNSLKTEDTAVYYCRYVHYGAYYGVDAWGQGTTVTVSSASTKGPSVFPLAPSSKSTSGGTAALGCLVKDYFPEPVTVSWNSGALTSGVHTFPAVLQSSGLYSLSSVVTVPSSSLGTQTYICNVNHKPSNTKVDKKVEPKSCDKTHTCPPCPAPEAAGGPSVFLFPPKPKDTLMISRTPEVTCVVVDVSHEDPEVKFNWYVDGVEVHNAKTKPREEQYASTYRVVSVLTVLHQDWLNGKEYKCKVSNKALPAPIEKTISKAKGQPREPQVYTLPPSRCELTKNQVSLSCAVKGFYPSDIAVEWESNGQPENNYKTTPPVLDSDGSFFLVSKLTVDKSRWQQGNVFSCSVMHEALHNHYTQKSLSLSPDYKDDDDK EPKSSDKTHTCPPCPAPELLGGPSVFLFPPKPKDTLMISRTPEVTCVVVDVSHEDPEVKFNWYVDGVEVHNAKTKPREEQYNSTYRVVSVLTVLHQDWLNGKEYKCKVSNKALPAPIEKTISKAKGQPREPQVCTLPPSRDELTKNQVSLWCLVKGFYPSDIAVEWESNGQPENNYKTTPPVLDSDGSFFLYSKLTVDKSRWQQGNVFSCSVMHEALHNRYTQKSLSLSP light: DIVMTQSPLSLPVTPGEPASISCRSSQSLVHSNRNTYLHWYQQKPGQAPRLLIYKVSNRFSGVPDRFSGSGSGTDFTLKISRVEAEDVGVYYCGQGTQVPYTFGQGTKLEIKRTVAAPSVFIFPPSDEQLKSGTASVVCLLNNFYPREAKVQWKVDNALQSGNSQESVTEQDSKDSTYSLSSTLTLSKADYEKHKVYACEVTHQGLSSPVTKSFNRGEC
4 | 0.6 | CE115HA000 K52bQ one-arm antibody (antibody, human IgG1, kappa, L234A L235A, N297A, name in Kabat numbering) heavy: QVQLVESGGGVVQPGRSLRLSCAASGFTFSNAWMHWVRQAPGKGLEWVAQIKAQSNNYATYYAESVKGRFTISRDDSKNSLYLQMNSLKTEDTAVYYCRYVHYGAYYGVDAWGQGTTVTVSSASTKGPSVFPLAPSSKSTSGGTAALGCLVKDYFPEPVTVSWNSGALTSGVHTFPAVLQSSGLYSLSSVVTVPSSSLGTQTYICNVNHKPSNTKVDKKVEPKSCDKTHTCPPCPAPEAAGGPSVFLFPPKPKDTLMISRTPEVTCVVVDVSHEDPEVKFNWYVDGVEVHNAKTKPREEQYASTYRVVSVLTVLHQDWLNGKEYKCKVSNKALPAPIEKTISKAKGQPREPQVYTLPPSRCELTKNQVSLSCAVKGFYPSDIAVEWESNGQPENNYKTTPPVLDSDGSFFLVSKLTVDKSRWQQGNVFSCSVMHEALHNHYTQKSLSLSPDYKDDDDK EPKSSDKTHTCPPCPAPELLGGPSVFLFPPKPKDTLMISRTPEVTCVVVDVSHEDPEVKFNWYVDGVEVHNAKTKPREEQYNSTYRVVSVLTVLHQDWLNGKEYKCKVSNKALPAPIEKTISKAKGQPREPQVCTLPPSRDELTKNQVSLWCLVKGFYPSDIAVEWESNGQPENNYKTTPPVLDSDGSFFLYSKLTVDKSRWQQGNVFSCSVMHEALHNRYTQKSLSLSP light: DIVMTQSPLSLPVTPGEPASISCRSSQSLVHSNRNTYLHWYQQKPGQAPRLLIYKVSNRFSGVPDRFSGSGSGTDFTLKISRVEAEDVGVYYCGQGTQVPYTFGQGTKLEIKRTVAAPSVFIFPPSDEQLKSGTASVVCLLNNFYPREAKVQWKVDNALQSGNSQESVTEQDSKDSTYSLSSTLTLSKADYEKHKVYACEVTHQGLSSPVTKSFNRGEC
